Laboratory results from patent US20210171598A1, “PEPTIDE HORMONE WITH ONE OR MORE O-GLYCANS” (priority 2017, published 2021).
Groups on a side chain read outwards from the residue. No end group written: not given here.

Assays:
VIP/PACAP receptor VPAC1 = molecular target: T1, VIP/PACAP receptor VPAC1 (UniProt P32241 31-457); assay: cell-based or functional assay
T1 sequence (looked up): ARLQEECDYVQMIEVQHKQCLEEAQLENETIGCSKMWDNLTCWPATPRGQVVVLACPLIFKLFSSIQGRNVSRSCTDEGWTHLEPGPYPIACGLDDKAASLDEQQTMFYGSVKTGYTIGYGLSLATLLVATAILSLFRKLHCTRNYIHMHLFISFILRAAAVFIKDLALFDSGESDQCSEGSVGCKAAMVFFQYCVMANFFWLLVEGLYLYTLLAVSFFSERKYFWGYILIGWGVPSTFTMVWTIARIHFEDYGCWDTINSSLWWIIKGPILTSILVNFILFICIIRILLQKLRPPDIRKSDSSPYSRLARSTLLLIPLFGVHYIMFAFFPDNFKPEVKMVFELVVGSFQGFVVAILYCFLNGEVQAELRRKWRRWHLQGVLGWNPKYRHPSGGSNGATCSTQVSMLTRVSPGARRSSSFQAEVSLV

VIP/PACAP receptor VPAC2 = molecular target: T2, VIP/PACAP receptor VPAC2 (UniProt P41587 24-438); assay: cell-based or functional assay
T2 sequence (looked up): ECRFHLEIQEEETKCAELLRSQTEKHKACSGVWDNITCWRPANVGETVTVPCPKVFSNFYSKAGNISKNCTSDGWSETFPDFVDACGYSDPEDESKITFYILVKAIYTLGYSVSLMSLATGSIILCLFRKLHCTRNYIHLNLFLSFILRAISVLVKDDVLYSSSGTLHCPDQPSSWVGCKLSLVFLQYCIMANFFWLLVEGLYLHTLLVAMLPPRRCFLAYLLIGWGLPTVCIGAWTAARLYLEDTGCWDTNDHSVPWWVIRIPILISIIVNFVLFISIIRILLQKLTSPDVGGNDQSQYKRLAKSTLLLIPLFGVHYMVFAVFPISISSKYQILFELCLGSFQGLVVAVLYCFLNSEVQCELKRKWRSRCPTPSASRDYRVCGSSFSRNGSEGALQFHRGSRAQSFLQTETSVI

Binder	potency, cAMP accumulation (HTRF) (VIP/PACAP receptor VPAC1)	potency, cAMP accumulation (HTRF) (VIP/PACAP receptor VPAC2)
HSDAVFT([GalNAc-Gal-NeuAc])DNYTRLRKQMAVKKYLNSILN [VIP with ST O-glycan at Thr7]	74 nM	244 nM
HSDAVFT(GalNAc)DNYTRLRKQMAVKKYLNSILN [VIP with one O-glycan (GalNAc/Tn) at residue 7]	102 nM	242 nM
